T1: Monkey CD96-3xFlag (cyno-CD96-3xFLAG) (cynomolgus monkey)
T1 construct: Signal peptide marked only by lost underlining; also called cynomolgus CD96
T1 chain: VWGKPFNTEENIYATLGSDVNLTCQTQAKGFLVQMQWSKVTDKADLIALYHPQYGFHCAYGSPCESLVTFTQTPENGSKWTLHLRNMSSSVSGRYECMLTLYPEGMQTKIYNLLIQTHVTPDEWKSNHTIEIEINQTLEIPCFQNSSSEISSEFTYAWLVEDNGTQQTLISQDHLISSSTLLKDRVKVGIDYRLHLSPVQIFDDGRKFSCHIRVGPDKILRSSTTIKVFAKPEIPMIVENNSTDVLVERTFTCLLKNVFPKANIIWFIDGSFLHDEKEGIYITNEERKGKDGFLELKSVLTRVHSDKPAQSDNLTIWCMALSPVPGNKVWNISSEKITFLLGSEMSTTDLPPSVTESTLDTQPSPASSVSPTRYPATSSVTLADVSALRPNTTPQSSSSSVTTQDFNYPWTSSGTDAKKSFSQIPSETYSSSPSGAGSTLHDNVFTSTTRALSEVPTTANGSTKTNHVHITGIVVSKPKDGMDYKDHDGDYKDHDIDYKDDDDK

T2: CD96 extracellular region with His tag (CD96-His) (human, UniProt P40200 22-519)
T2 construct: also called CD96-ECD-His; Bio-CD96-His (biotin-labelled form)
T2 sequence: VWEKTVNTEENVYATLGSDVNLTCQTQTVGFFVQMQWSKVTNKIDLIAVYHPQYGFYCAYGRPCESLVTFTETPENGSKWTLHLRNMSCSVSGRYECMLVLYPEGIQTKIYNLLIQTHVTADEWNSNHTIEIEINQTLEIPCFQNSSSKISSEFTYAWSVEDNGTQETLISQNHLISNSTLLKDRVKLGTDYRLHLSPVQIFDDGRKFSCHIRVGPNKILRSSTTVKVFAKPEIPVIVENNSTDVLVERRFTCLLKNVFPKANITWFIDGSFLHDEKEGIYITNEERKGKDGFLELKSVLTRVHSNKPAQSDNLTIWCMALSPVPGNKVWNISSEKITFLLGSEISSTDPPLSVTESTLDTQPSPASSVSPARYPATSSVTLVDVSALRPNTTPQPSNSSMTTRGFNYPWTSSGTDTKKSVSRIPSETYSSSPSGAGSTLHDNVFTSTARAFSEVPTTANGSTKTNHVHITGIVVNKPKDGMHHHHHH


Experiments:
[1] = target: T1, Monkey CD96-3xFlag (cyno-CD96-3xFLAG); assay: ELISA, cyno-CD96-3xFLAG coated
Experimental: The cross-reactive binding capacity of the anti-CD96 antibody to monkey CD96 was tested by ELISA to determine the binding of the antibody to cynomolgus CD96 protein. The 3×FLAG-tagged CD96 fusion protein was used to coat the microtiter plate, and the intensity of the signal after adding with the antibody was used for evaluating the binding activity of the antibody and cynomolgus CD96. The specific experimental method is as follows:
cyno-CD96-3×FLAG with the amino acid sequence of SEQ ID NO: 95 prepared in Embodiment 4 was diluted to a concentration of 2 μg/ml with PBS buffer (Shanghai Yuanpei Biotechnology Co., Ltd. Cat No. B320), pH 7.4, added to a 96-well microtiter plate (Corning, Cat No. CLS3590-100EA) at a volume of 50 μl/well, and placed in an incubator at 37° C. for 2 hours. After discarding the liquid, 250 μl/well of 5% skim milk (BD, 232100) blocking solution diluted with PBS was added, and the plate was incubated in an incubator at 37° C. for 2.5 hours or at 4° C. overnight (16-18 hours) for blocking. After blocking, the blocking solution was discarded, and the plate was washed 4 times with PBST buffer (pH 7.4 PBS containing 0.05% tween-20). 50 μl/well of different concentrations of the antibodies to be tested (hybridoma purification antibody or humanized antibody) diluted with sample dilution was added, and the plate was incubated in an incubator at 37° C. for 1 hour. […] After washing the plate 4 times with PBST, 50 μl/well of TMB chromogenic substrate (KPL, Cat No. 52-00-03) was added, and the plate was incubated at room temperature for 5-15 minutes, followed by adding 50 μl/well of 1M H₂SO₄ to stop the reaction. The absorption value was read at 450 nm with a NOVOStar microplate reader, and the EC50 value of the binding of CD96 antibody to monkey CD96 was calculated (see Table 14).

[2] = target: T2, CD96 extracellular region with His tag …; assay: blocking cell ELISA: antibody premixed with Bio-CD96-His (0.5 ug/mL), binding to fixed CD155-CHO cells
Experimental: CD155-CHO cells (constructed by Shanghai Hengrui) were seeded in 96-well culture plates at a density of 9×10⁴/100 μL/well and cultured overnight. After aspirating the supernatant, the plate was washed once with PBS, 100 μl/well of immunostaining fixation solution (Biyuntian, Cat No. P0098) was added and fixed for one hour at room temperature, and the plate was washed three times with PBS. After discarding the liquid, 250 μl/well of 5% skim milk (BD, Cat No. 232100) blocking solution diluted with PBS was added, and the plate was blocked in an incubator at 37° C. for 2.5 hours. After blocking, the blocking solution was discarded, subsequently, the plate was washed 4 times with PBST buffer (pH 7.4 PBS containing 0.05% tween-20). 50 μl/well of antigen-antibody pre-incubation solution (gradient concentrations of the hybridoma antibody to be tested and CD96-Fc at a final concentration of 0.5 μg/mL were premixed at 37° C. for 30 minutes, or gradient concentrations of humanized antibody samples and Bio-CD96-His at a final concentration of 0.5 μg/mL were premixed at 37° C. for 30 minutes) (Biotin-labeled kit, Dongren Chemical, Cat No. LK03) was added, and the plate was incubated in an incubator at 37° C. for 2 hours. After incubation, the reaction solution in the microtiter plate was discarded, the plate was washed 4 times with PBST, and 50 μl/well of HRP-labeled goat anti-human secondary antibody (Jackson Immuno Research, Cat No. 109-035-003) diluted with sample dilution or HRP-labeled streptavidin diluted with sample dilution (Sigma, Cat No. 52438) was added, followed by incubating at 37° C. for 1 hour. After washing the plate 4 times with PBST, 50 μl/well of TMB chromogenic substrate (KPL, Cat No. 52-00-03) was added, the plate was incubated at room temperature for 10-20 minutes, followed by adding 50 μl/well of 1M H₂SO₄ to stop the reaction. The absorption value was read at 450 nm with a NOVOStar microplate reader, and the EC50 value of the effect of CD96 antibody on blocking the binding between the antigens and CD155-CHO cells was calculated (see FIG. 2 and Table 16).

EC50 [1] [nM] | IC50 [2] [nM] | Binder
0.096 |  | ch1720 (antibody, human IgG4 S228P, kappa, V domains shown, also called chimeric antibody corresponding to m1720) VH: EFQLQQSGPELVKPGASVKISCKASAYSLTDYNMNWVKQSNGKSLEWIGVINPSYGISSYNQKFKGKATLTVDQSSSTAYMHLNSLTSEDSAVYYCARQLRLPGYFDVWGTGTTVTVSS VL: DIKMTQSPSSKNASLGERVTITCKASQDINSYLNWFQQKPGKSPKTLIYRASRLVDGVPSRFSGSGSGQDYSLTISSLEYEDMGIYYCLKYDEFPYTFGGGTKLEIKR
0.068 |  | ch1718 (antibody, human IgG4 S228P, kappa, V domains shown, also called chimeric antibody corresponding to m1718) VH: EFQLQQSGPELVKPGASVKISCKASAYSITDYNMNWVKQSNGKSLEWIGVINPSYGITDYNQNFKDKATLTVDQSSSTAYMQLNSLTSEDSAVYYCAIQLRLPGYFDVWGTGTTVIVSS VL: DIKMTQSPSSMYASLGERVTITCKASQDINNYLNWFQQKPGKSPKTLIYRANRLVDGVPSRFSGSGSGQDYSLTISSLEYEDMGIYYCLKYDEFPYTFGGGTKVEIKR
0.037 | 0.155 | h1721-003 (antibody, V domains shown, Only variable regions are tied to this name; also called M721-003) VH: EVTLKESGPVLVKPTETLTLTCTVSGFSLSSYGVNWIRQPPGKALEWLGVIWGDGSTNYHSALISRLTISKDTSKSQVVLTLTNMDPVDTATYYCAKNYFYGSRYGYAMDSWGQGTTVTVSS VL: DIQMTQSPSSLSASVGDRVTITCRASENIYSSLAWYQQKPGKAPKLLIYNAKTLIEGVPSRFSGSGSGTDFTLTISSLQPEDFATYYCQHHYGTPYTFGGGTKVEIK
 | 0.064 | h1719-006 (antibody, V domains shown, also called M719-006) VH: EVTLKESGPVLVKPTETLTLTCTVSGFSLSSYGVSWVRQPPGKGLEWLGVIWGDGNTNYHSVLISRLTISKDTSKSQVVLTLTNMDPVDTATYYCAKNNYYGSRYGYPMDYWGQGTTVTVSS VL: DIQMTQSPSSVSASVGDRVTITCKATQDVGTAVAWYQQKPGKSPKLLIYWASTRHTGVPERFSGSGSGTDFTLTISSLQPEDFATYFCQQYGSSVLTFGGGTKVEIK
0.047 |  | ch1719 (antibody, human IgG4 S228P, kappa, V domains shown, also called chimeric antibody corresponding to m1719) VH: QVQLKESGPGLVAPSQSLSITCTVSGFSLISYGVSWVRQPPGKGLEWLGVIWGDGNTNYHSVLISRLSIRKDDSKSQVFLKLNSLQTDDTATYYCAKNNYYGSRYGYPMDYWGQGTSVTVSS VL: DIVMTQSHKFMSTSVGDRVSITCKATQDVGTAVAWYQQKPGHSPKLLIYWASTRHTGVPERFTGSGSGTDFTLTIDNVQSEDLADYFCQQYGSSVLTFGAGTKVELRR
0.046 |  | ch1721 (antibody, human IgG4 S228P, kappa, V domains shown, also called chimeric antibody corresponding to m1721) VH: QVQLKESGPGLVAPSQSLSITCTVSGFSLISYGVNWVRQPPGKGLEWLGVIWGDGSTNYHSALISRLSISKDDSKSQVFLNLNSLQTDDTATYYCAKNYFYGSRYGYAMDSWGQGISVTVSS VL: DIQMTQSPASLSAAVGETVTITCRASENIYSSLAWYQQKQGKSPQLLVYNAKTLIETVASRFSGSGSGTQYSLKINSLQPEDFGSFYCQHHYGTPYTFGGGTKLEIKR
0.075 | 0.133 | h1718-012 (antibody, V domains shown, Only variable regions are tied to this name) VH: EVQLVQSGAEVKKPGASVKVSCKASGYTITDYNMNWVRQAPGQRLEWIGVINPSYGITDYNQNFKDRVTITVDTSASTAYMELSSLRSEDTAVYYCAIQLRLPGYFDVWGQGTTVTVSS VL: DIQMTQSPSSLSASVGDRVTITCKASQDINQYLNWFQQKPGKAPKTLIYRANRLVDGVPSRFSGSGSGQDYTLTISSLQPEDFATYYCLKYDEFPYTFGGGTKVEIK
0.05 |  | ch1722 (antibody, human IgG4 S228P, kappa, V domains shown, also called chi722; chimeric antibody corresponding to m1722) VH: QVQLQQPGAELVKPGTSVKLSCKASGNTFIDYWMHWVKQRPGQGLEWIGMLHPNSGTTSFNEKFKIKTTLTIDKSSSTAYMQLSSLTSEDSAIYYCASDYSGPFAYWGQGTLVTVSA VL: QIVLTQSPGIMSAFPGEKVTMTCSASSSVNYIHWYQQKSGTSPKRWIFDTSKLASGVPARFSGSGSGTSYSLTISSMEAEDAATYYCQQWRSNPLTFGAGTKLELKR
0.047 | 0.207 | h1722-010 (antibody, V domains shown, Only variable regions are tied to this name; also called M722-010) VH: EVQLVQSGAEVKKPGSSVKVSCKASGGTFSDYWMHWVRQAPGQGLEWIGMLHPNSGTTSFNEKFKIRVTITADKSTSTAYMELSSLRSEDTAVYYCASDYSGPFAYWGQGTLVTVSS VL: DIQLTQSPSSLSASVGDRVTITCSASSSVNYIHWYQQKPGKAPKRWIFDTSKLASGVPSRFSGSGSGTDYTLTISSLQPEDFATYYCQQWRSNPLTFGQGTKLEIK
 | 0.398 | h1722-006 (antibody, V domains shown, Only variable regions are tied to this name) VH: EVQLVQSGAEVKKPGSSVKVSCKASGGTFSDYWMHWVRQAPGQGLEWIGMLHPNSGTTSFNEKFKIRVTITADKSTSTAYMELSSLRSEDTAVYYCASDYSGPFAYWGQGTLVTVSS VL: DIQMTQSPSSLSASVGDRVTITCSASSSVNYIHWYQQKPGKAPKRWIYDTSKLASGVPSRFSGSGSGTDFTLTISSLQPEDFATYYCQQWRSNPLTFGQGTKLEIK
0.051 | 0.134 | h1722-018 (antibody, V domains shown) VH: EVQLVQSGAEVKKPGSSVKVSCKASGGTFSDYWMHWVRQAPGQGLEWIGMLHPQSGTTSFNEKFKIRVTITADKSTSTAYMELSSLRSEDTAVYYCASDYSGPFAYWGQGTLVTVSS VL: DIQLTQSPSSLSASVGDRVTITCSASSSVNYIHWYQQKPGKAPKRWIFDTSKLASGVPSRFSGSGSGTDYTLTISSLQPEDFATYYCQQWRSNPLTFGQGTKLEIK
0.047 | 0.135 | h1722-017 (antibody, V domains shown) VH: EVQLVQSGAEVKKPGSSVKVSCKASGGTFSDYWMHWVRQAPGQGLEWIGMLHPKSGTTSFNEKFKIRVTITADKSTSTAYMELSSLRSEDTAVYYCASDYSGPFAYWGQGTLVTVSS VL: DIQLTQSPSSLSASVGDRVTITCSASSSVNYIHWYQQKPGKAPKRWIFDTSKLASGVPSRFSGSGSGTDYTLTISSLQPEDFATYYCQQWRSNPLTFGQGTKLEIK
